The results in this text go back to publication PMC7367873, “Dissecting the sequence determinants for dephosphorylation by the catalytic subunits of phosphatases PP1 and PP2A” (Nature Communications, 2020).

The subject of assay [1] is GFP-14-3-3β and its binding proteins. Nature of the assay: GFP-14-3-3β co-IP with LC-MS/MS label-free quantification, untreated versus PP1c-treated. Also noted: species or system human. To be noted: pairwise comparison PP1 vs untreated, 3 replicates each.
Assay [2] concerns GFP-14-3-3β. Nature of the assay: GFP-14-3-3β co-IP with LC-MS/MS, untreated GFP-14-3-3β versus GFP control (14-3-3 interactome). The assay is classed as binding, human. The conditions noted are these: 3 replicates each.
The mark [3] stands for this setting: student's t-test, LC-MS/MS label-free quantification.
Setting [4] is: pairwise comparison untreated GFP-14-3-3β vs GFP, student's t-test, LC-MS/MS label-free quantification.

B1: PAK4 (protein, UniProt O96013 1-591, looked up)
Serine/threonine-protein …: MFGKRKKRVEISAPSNFEHRVHTGFDQHEQKFTGLPRQWQSLIEESARRPKPLVDPACITSIQPGAPKTIVRGSKGAKDGALTLLLDEFENMSVTRSNSLRRDSPPPPARARQENGMPEEPATTARGGPGKAGSRGRFAGHSEAGGGSGDRRRAGPEKRPKSSREGSGGPQESSRDKRPLSGPDVGTPQPAGLASGAKLAAGRPFNTYPRADTDHPSRGAQGEPHDVAPNGPSAGGLAIPQSSSSSSRPPTRARGAPSPGVLGPHASEPQLAPPACTPAAPAVPGPPGPRSPQREPQRVSHEQFRAALQLVVDPGDPRSYLDNFIKIGEGSTGIVCIATVRSSGKLVAVKKMDLRKQQRRELLFNEVVIMRDYQHENVVEMYNSYLVGDELWVVMEFLEGGALTDIVTHTRMNEEQIAAVCLAVLQALSVLHAQGVIHRDIKSDSILLTHDGRVKLSDFGFCAQVSKEVPRRKSLVGTPYWMAPELISRLPYGPEVDIWSLGIMVIEMVDGEPPYFNEPPLKAMKMIRDNLPPRLKNLHKVSPSLKGFLDRLLVRDPAQRATAAELLKHPFLAKAGPPASIVPLMRQNRTR
On to B1, for which the “Difference (log2), PP1 vs untreated” value in assay [1] (setting [3]) is recorded as -4.365 log2. In addition, in assay [2] (setting [4]), the “Difference (log2), untreated vs GFP” value was 5.767 log2.

B2: HOMER3 (protein, UniProt Q9NSC5 1-361, looked up)
Homer protein homolog 3: MSTAREQPIFSTRAHVFQIDPATKRNWIPAGKHALTVSYFYDATRNVYRIISIGGAKAIINSTVTPNMTFTKTSQKFGQWADSRANTVYGLGFASEQHLTQFAEKFQEVKEAARLAREKSQDGGELTSPALGLASHQVPPSPLVSANGPGEEKLFRSQSADAPGPTERERLKKMLSEGSVGEVQWEAEFFALQDSNNKLAGALREANAAAAQWRQQLEAQRAEAERLRQRVAELEAQAASEVTPTGEKEGLGQGQSLEQLEALVQTKDQEIQTLKSQTGGPREALEAAEREETQQKVQDLETRNAELEHQLRAMERSLEEARAERERARAEVGRAAQLLDVSLFELSELREGLARLAEAAP
Regarding B2, the “Difference (log2), PP1 vs untreated” value in assay [1] (setting [3]) was -4.512 log2. Besides, the “Difference (log2), untreated vs GFP” value in assay [2] (setting [4]) was found to be 5.445 log2.

B3: PA2G4 (protein, UniProt Q9UQ80 2-394, looked up)
Proliferation-associated …: SGEDEQQEQTIAEDLVVTKYKMGGDIANRVLRSLVEASSSGVSVLSLCEKGDAMIMEETGKIFKKEKEMKKGIAFPTSISVNNCVCHFSPLKSDQDYILKEGDLVKIDLGVHVDGFIANVAHTFVVDVAQGTQVTGRKADVIKAAHLCAEAALRLVKPGNQNTQVTEAWNKVAHSFNCTPIEGMLSHQLKQHVIDGEKTIIQNPTDQQKKDHEKAEFEVHEVYAVDVLVSSGEGKAKDAGQRTTIYKRDPSKQYGLKMKTSRAFFSEVERRFDAMPFTLRAFEDEKKARMGVVECAKHELLQPFNVLYEKEGEFVAQFKFTVLLMPNGPMRITSGPFEPDLYKSEMEVQDAELKALLQSSASRKTQKKKKKKASKTAENATSGETLEENEAGD
With B3, the “Difference (log2), PP1 vs untreated” value in assay [1] (log2 difference, label-free quantification) is listed as 1.519. Also, the “Difference (log2), untreated vs GFP” value in assay [2] (log2 difference, pairwise comparison untreated vs GFP, label-free quantification) is listed as 0.3875.

B4: GIT1 (protein, UniProt Q9Y2X7 1-761, looked up)
ARF GTPase-activating protein …: MSRKGPRAEVCADCSAPDPGWASISRGVLVCDECCSVHRSLGRHISIVKHLRHSAWPPTLLQMVHTLASNGANSIWEHSLLDPAQVQSGRRKANPQDKVHPIKSEFIRAKYQMLAFVHKLPCRDDDGVTAKDLSKQLHSSVRTGNLETCLRLLSLGAQANFFHPEKGTTPLHVAAKAGQTLQAELLVVYGADPGSPDVNGRTPIDYARQAGHHELAERLVECQYELTDRLAFYLCGRKPDHKNGHYIIPQMADSLDLSELAKAAKKKLQALSNRLFEELAMDVYDEVDRRENDAVWLATQNHSTLVTERSAVPFLPVNPEYSATRNQGRQKLARFNAREFATLIIDILSEAKRRQQGKSLSSPTDNLELSLRSQSDLDDQHDYDSVASDEDTDQEPLRSTGATRSNRARSMDSSDLSDGAVTLQEYLELKKALATSEAKVQQLMKVNSSLSDELRRLQREIHKLQAENLQLRQPPGPVPTPPLPSERAEHTPMAPGGSTHRRDRQAFSMYEPGSALKPFGGPPGDELTTRLQPFHSTELEDDAIYSVHVPAGLYRIRKGVSASAVPFTPSSPLLSCSQEGSRHTSKLSRHGSGADSDYENTQSGDPLLGLEGKRFLELGKEEDFHPELESLDGDLDPGLPSTEDVILKTEQVTKNIQELLRAAQEFKHDSFVPCSEKIHLAVTEMASLFPKRPALEPVRSSLRLLNASAYRLQSECRKTVPPEPGAPVDFQLLTQQVIQCAYDIAKAAKQLVTITTREKKQ
As to B4, the “Difference (log2), PP1 vs untreated” value in assay [1] (setting [3]) is -4.417 log2. Further, the “Difference (log2), untreated vs GFP” value in assay [2] (setting [4]) was found to be 5.06 log2.
